Source: paper PMC2587052 (Nature structural & molecular biology, 2008)

B1: synaptotagmin-1 C2AB fragment (residues 140-421), wild type (domain or fragment)
chain: EKLGKLQYSLDYDFQNNQLLVGIIQAAELPALDMGGTSDPYVKVFLLPDKKKKFETKVHRKTLNPVFNEQFTFKVPYSELGGKTLVMAVYDFDRFSKHDIIGEFKVPMNTVDFGHVTEEWRDLQSAEKEEQEKLGDICFSLRYVPTAGKLTVVILEAKNLKKMDVGGLSDPYVKIHLMQNGKRLKKKKTTIKKNTLNPYYNESFSFEVPFEQIQKVQVVVTVLDYDKIGKNDAIGKVFVGYNSTGAELRHWSDMLANPRRPIAQWHTLQVEEEVDAMLAVKK
B2: synaptotagmin-1 C2AB fragment (residues 140-421) R398Q,R399Q mutant (domain or fragment)
chain: EKLGKLQYSLDYDFQNNQLLVGIIQAAELPALDMGGTSDPYVKVFLLPDKKKKFETKVHRKTLNPVFNEQFTFKVPYSELGGKTLVMAVYDFDRFSKHDIIGEFKVPMNTVDFGHVTEEWRDLQSAEKEEQEKLGDICFSLRYVPTAGKLTVVILEAKNLKKMDVGGLSDPYVKIHLMQNGKRLKKKKTTIKKNTLNPYYNESFSFEVPFEQIQKVQVVVTVLDYDKIGKNDAIGKVFVGYNSTGAELRHWSDMLANPQQPIAQWHTLQVEEEVDAMLAVKK

Target: SNARE complex reconstituted and anchored on supported phospholipid bilayers (rat | human, UniProt P32851;P60880-2;P63045)

Binder | EC50 [nM]
B1 | 12
B2 | 12
